Source: publication doi:10.1101/2022.05.13.491857 (bioRxiv, 2022)
Like-named read-outs stand apart in the source and are kept apart here.

What was measured:
Assay in all cases: pull-down
WRC230WCA [1] = target: T1, WRC230WCA (human, UniProt Q7L576 1-1253; Q9Y2A7 1-1128; Q92558 1-230; Q92558 485-559; Q9NYB9 1-158; …)
ΔWRC230 [2] = target: T2, ΔWRC230 (human, UniProt Q7L576 1-1253; Q9Y2A7 1-1128; Q92558 1-230; Q9NYB9 1-158; Q8WUW1 1-75)
WRC230WCA [3] = target: T1, WRC230WCA; remark: listed apart in the source
ΔWRC230 [4] = target: T2, ΔWRC230; remark: listed apart in the source

B1: GST-Arf1 (natural protein)
chain: not shown
For B1, the Kd (WRC230WCA [1]) was ~8.2 µM, the Kd (ΔWRC230 [2]) was ~0.66 µM and the Kd (WRC230WCA [3]) was ~107 µM. The Kd (ΔWRC230 [4]) was ~22.6 µM.
